# B1: 544 (protein)
# chain: MAQGKVALEEHFAIPETLQDAAGFVPGDYWKELQHRLLDIQDTRLKEMDKHEIGTMVLSLAAPAVQAIPDRRKAIELARRANDFLAEEVAKRPDRFLAFAALPLQDVDAATSELQRCVNDLGFVGAMVNGFSQEGDGQTPLYYDLPQYRPFWGEVEKLDVPFYLHPRNPLPQDSRIYDGHPWLLGPTWAFAQETAVHALRLMASGLFDEHPRLNIILGHLGEGLPYMMYRIDHRIAWVKAPPDYPAKRRFMDYFLENFWITTSGNFRTQTLIDAILEIGADRILFSTDWPFENIDHAADWFNATSIAEADRVKIGRTNARNLFKLDVS
# modifications: Dicamba decarboxylase variant
# B2: 547 (protein)
# chain: MAQGLVALEEHFAIPETLQDAAGFVPGDYWKELQHRLLDIQDTRLKEMDKHEIGTMILSLAAPAVQAIPDRRKAIELAKRANDFLAEEVAKRPDRFLAFAALPMQDVDAATEELQRCVADLGFVGAMVNGFSQEGDGQTPLYYDLPQYRPFWKEVEKLDVPFYLHPRNPLPQDARIYDGHPWLLGPTWAFAQETAVHALRLMASGLFDEHPRLNIILGHMGEGLPYMMYRIDHRIAWVKAPPRYPAKRRFMDYFLENFHITTSGNFRTQTLIDAILEIGADRILFSTDWPFENIDHAADWFNATSIAEADRVKIGRTNARRLFKLDVR
# modifications: Dicamba decarboxylase variant
# B3: 542 (protein)
# chain: MAQGKVALEEHFAIPETLQDAAGFVPGDYWKELQHRLLDIQDTRLKEMDRHGIGTMVLSLAAPAVQAIPDRRKAIEIARRANDFLAEEVAKRPDRFLAFAALPLQDVDAATEELQRCVADLGFVGAMVNGFSQEGDGQTPLYYDLPQYRPFWKEVEKLDVPFYLHPRNPLPQDSRIYDGHPWLLGPTWAFAQETAVHALRLMASGLFDEHPRLNIILGHMGEGLPYMMYRIDHRIAWVKAPPDYPAKRRFMDYFLENFHITTSGNFRTQTLIDAILEIGADRILFSTDWPFENIDHAADWFAATSIAEADRVKIGRTNARRLFKLDGR
# modifications: Dicamba decarboxylase variant
# B4: 545 (protein)
# chain: MAQGLVALEEHFAIPETLQDAAGFVPGDYWKELQHRLLDMQDTRLKEMDRHGIGTMVLSLAAPAVQAIPDRRKAIELARRANDFLAEEVAKRPDRFLAFAALPLQDVDAATEELQRCVNDLGFVGAMVNGFSQEGDGQTPLYYDLPQYRPFWGEVEKLDVPFYLHPRNPLPQDARIYDGHPWLLGPTWAFAQETAVHALRLMASGLFDEHPRLNIILGHMGEGLPYMMYRIDHRIAWVKAPPDYPAKRRFMDYFLENFHITTSGNFRTQTLIDAILEIGADRILFSTDWPFENIDHAADWFNATSIAEADRVKIGRTNARRLFKLDGR
# modifications: Dicamba decarboxylase variant
# B5: 546 (protein)
# chain: MAQGKVALEEHFAIPETLQDAAGFVPGDYWKELQHRLLDMQDTRLKEMDKHGIGTMVLSLAAPAVQAIVDRRKAIELARRANDFLAEEVAKRPDRFLAFAALPLQDVDAATEELQRCVNDLGFVGAMVNGFSQEGDGQTPLYYDLPQYRPFWGEVEKLDVPFYLHPRNPLPQDSRIYDGHPWLLGPTWAFAQETAVHALRLMASGLFDEHPRLNIILGHMGEGLPYMMYRIDHRIAWVKAPPDYPAKRRFMDYFLENFHITTSGNFRTQTLIDAILEIGADRILFSTDWPFENIDHAADWFAATSIAEADRVKIGRTNARRLFKLDGR
# modifications: Dicamba decarboxylase variant
# B6: 543 (protein)
# chain: MAQGLVALEEHFAIPETLQDAAGFVPGDYWKELQHRLLDIQDTRLKEMDKHGIGTMVLSLAAPAVQAIPDRRKAIEIARRANDFLAEEVAKRPDRFLAFAALPLQDVDAATEELQRCVNDLGFVGAMVNGFSQEGDGQTPLYYDLPQYRPFWGEVEKLDVPFYLHPRNPLPQDARIYDGHPWLLGPTWAFAQETAVHALRLMASGLFDEHPRLNIILGHLGEGLPYMMYRIDHRIAWVKAPPDYPAKRRFMDYFLENFWITTSGNFRTQTLIDAILEIGADRILFSTDWPFENIDHAADWFNATSIAEADRVKIGRTNARRLFKLDVR
# modifications: Dicamba decarboxylase variant
# Assay: Shuffled variant libraries: 14CO2 capturing assay in 384-well format
# Conditions: decarboxylation activity (carbon dioxide released) compared with unmutated backbone protein SEQ ID NO 509 (DDEC0810)
row,Molecule,Fold Activity
1,B1,1.2
2,B2,1.6
3,B3,1.0
4,B4,1.1
5,B5,1.3
6,B6,0.9

# — patent US20160053277A1, “Compositions Having Dicamba Decarboxylase Activity and Methods of Use” (PIONEER HI-BRED INTERNATIONAL, INC., priority 2013, published 2016)
